Source: patent US20170290925A1, “Conjugates And Conjugating Reagents” (priority 2014, published 2017)
Where a SMILES comes first, the peptide text is derived from it. [ ]: non-standard residue; d: D form. The star is where a group is joined. Dolaproine = CO[C@@H]([C@@H]1CCCN1)[C@@H](C)C(=O)O; Dil = CC[C@H](C)[C@H](NC)[C@@H](CC(=O)O)OC; X1 = C[C@@H](N*)[C@@H](O)c1ccccc1; NMeV = CN[C@H](C(=O)O)C(C)C

Columns and labels:
[1] = system: CD30-positive Karpas 299 cell line; test: In vitro cell viability assay (CellTiter Glo) in Karpas 299; assay type: cell-based, human; conditions: Karpas 299 cells, 72 h incubation, conjugates DAR 4
Protocol: Purified brentuximab drug conjugates 10 and 11 with a drug to antibody ratio (DAR) of four as described in Example 6, were evaluated in vitro by measuring the inhibitory effect on cell growth of (CD30)-positive cell line Karpas 299 using the method described below.
Loss of tumour cell viability following treatment with cytotoxic drugs or ADCs in vitro can be measured by growing cell lines in the presence of increasing concentrations of drugs or ADCs and quantifying the loss of proliferation or metabolic activity using CellTiter Glo® Luminescence reagent (Promega Corp. Technical Bulletin TB288; Lewis Phillips G. D, Cancer Res 2008; 68:9280-9290). […]
The human T cell lymphoma cell line Karpas 299 was obtained from Dr Abraham Karpas at the University of Cambridge. […] CD30-positive Karpas 299 were counted using a Neubauer haemocytometer and adjusted to a cell density of 5×10^4/mL. […]
The cell viability assay was carried out using the Cell-Titer Glo® Luminescence reagent, as described by the manufacturer's instructions, (Promega Corp. Technical Bulletin TB288; Lewis Phillips G. D, Cancer Res 2008; 68:9280-9290). […] Luminescence was recorded using a plate reader (e.g. MD Spectramax M3 plate reader), and data subsequently analysed using a four parameter non-linear regression model. […]

[2] = In vivo pharmacokinetics in rats, total (anti-CD30 antibody) ELISA; design: species or system Sprague-Dawley rats; conditions: single dose 7 mg/kg IV, period of 850 h
Protocol: (§1) Brentuximab conjugate 10 was used in this study as the ADC with a pendant PEG group. Brentuximab conjugate 11 was used as a comparator with a non-pendant PEG group.
(§2) In vivo pharmacokinetics in rats. Sprague-Dawley rats (3 rats per group) with an average weight of 200 g were treated with either 10, 11 or Adcetris®, via the tail vein (IV, bolus) at a single dose of 7 mg/kg. Serial sampling of 100 μL blood was performed before dosing and subsequently at 30 min, 24 h, 48 h, 7 d, 14 d and 35 d post-dosing respectively. Plasma was prepared from fresh blood samples and frozen at −80° C. until analysis.
Total (anti-CD30 antibody) ELISA. Total brentuximab antibody content from plasma samples was quantified using ELISA technology. Briefly, Maxisorp™ 96 well plates (Nunc/Fisher) were coated with recombinant human CD30, (Sino Biological Inc, 2.5 μg/mL in diluent) and incubated at 4° C. overnight. Plasma samples were diluted to ensure that the unknown ADCs fell within the linear range of the sigmoidal standard calibration curve. […]
IgG, (Promega) was added to the plate and the samples were incubated for 1 hour at room temperature on a shaker at 350 rpm. […] The assay was stopped with 100 μL of 0.5 M H2SO4 and read at UV λ=[…] using the plate reader. Data were plotted and evaluated in GraphPad Prism 5 and Microsoft Excel.

[3] = In vivo pharmacokinetics in rats, average DAR by CD30 affinity capture and HIC; design: species or system Sprague-Dawley rats; conditions: single dose 7 mg/kg IV, period of 850 h
Protocol: as §1, §2
CD30 affinity capture for average DAR determination Affinity capture was performed using streptavidin coated magnetic beads (Dynabeads-Streptavidin T1, Life Technologies). […] 500 1AL of the plasma sample in PBS was added to the CD30-coated beads and incubated overnight at 4° C. and finally washed using PBS. Captured antibodies were eluted using acidic elution buffer for 5 minutes at 4° C. […] Eluted samples were further mixed with HIC loading buffer and analysed using hydrophobic interaction chromatography with UV detection (HIC-UV).
Hydrophobic interaction chromatography for average DAR determination. Affinity captured ADCs were analysed using hydrophobic interaction chromatography in order to determine the average drug to antibody ratio (DAR). […]

Molecule: CC[C@H](C)[C@@H]([C@@H](CC(=O)N1CCC[C@H]1[C@H](OC)[C@@H](C)C(=O)N[C@H](C)[C@@H](O)c1ccccc1)OC)N(C)C(=O)[C@@H](NC(=O)[C@@H](NC)C(C)C)C(C)C [MMAE] (H-[NMeV]V[Dil][Dolaproine]-X1)
- IC50 [1]: 105 pM

Molecule: Adcetris®
- Rate of clearance from the circulation (total antibody) [2]: cleared more quickly
- Rate of drug loss from the conjugate (average DAR) [3]: much faster rate of drug dissociation
